# Reference: publication PMC5150220, “Multivalent contacts of the Hsp70 Ssb contribute to its architecture on ribosomes and nascent chain interaction” (Nature Communications, 2016)
# Ends that are not written are not given here.
# B1: APPY peptide (biotinylated) (peptide)
# peptide: SALLQSRLLLSAPRRAAATARYC
# modifications: also: biotinylated, position not given here
# notes: canonic Hsp70 substrate peptide APPY
# B2: Ssb1 (wild type, recombinant) (natural protein)
# chain: not shown
# notes: Hsp70 Ssb1 of Saccharomyces cerevisiae, wild type, expressed as His6-Smt3-Ssb1 and cleaved with Ulp1; The nucleotide state was set by pre-treatment with ATP (SsbATP) or apyrase (SsbADP) in one experiment; also called wt Ssb1; full length Ssb1; source: E. coli BL21(DE3)*/pRARE, purified (Ni-IDA, Ulp1 cleavage, Resource Q anion exchange); not shown: His6, N-terminal, cleaved; Smt3, N-terminal, …
# Tests used:
# Settings in all cases: both partners purified
# [1] = molecular target: T1, Ssb1Δ601–13 (recombinant) (S. cerevisiae, UniProt P11484 1-600); test: fluorescence polarisation; fluorescence anisotropy; Ssb1 wt or mutant (10 uM in the methods; titrated up to 100 uM in the text) with 1 uM IAANS-labelled peptide in HKM buffer (25 mM HEPES, 150 mM KCl, 5 mM MgCl2, 1 mM DTT, 10% glycerol), 1.5 h at 30 °C
# T1 construct: Purified as the wild type ('His6-Smt3-Ssb1 construct (or mutations thereof)'); also called mutant Ssb1; source: E. coli BL21(DE3)*/pRARE, purified (Ni-IDA, Ulp1 cleavage, Resource Q anion exchange); not shown: His6, N-terminal, cleaved; Smt3, N-terminal, cleaved
# T1 sequence (P11484 1-600, stated change not applied): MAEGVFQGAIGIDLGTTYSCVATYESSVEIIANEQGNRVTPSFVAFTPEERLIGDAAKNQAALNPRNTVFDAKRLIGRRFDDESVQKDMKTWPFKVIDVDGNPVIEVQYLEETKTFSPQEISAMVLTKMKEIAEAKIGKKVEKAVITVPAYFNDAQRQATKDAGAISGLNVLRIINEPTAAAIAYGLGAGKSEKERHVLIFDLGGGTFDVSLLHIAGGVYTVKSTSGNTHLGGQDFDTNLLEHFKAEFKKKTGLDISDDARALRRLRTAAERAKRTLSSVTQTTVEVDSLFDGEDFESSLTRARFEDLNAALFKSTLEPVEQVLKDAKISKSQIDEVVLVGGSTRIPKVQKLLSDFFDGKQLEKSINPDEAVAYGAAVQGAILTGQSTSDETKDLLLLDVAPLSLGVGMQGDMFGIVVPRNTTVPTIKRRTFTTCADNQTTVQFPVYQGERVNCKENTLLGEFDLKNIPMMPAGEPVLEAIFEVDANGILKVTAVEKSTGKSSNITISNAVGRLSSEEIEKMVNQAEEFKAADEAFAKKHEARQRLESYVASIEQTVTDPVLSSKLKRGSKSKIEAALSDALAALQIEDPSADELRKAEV
# [2] = molecular target: B2; test: as above
# [3] = molecular target: T1, Ssb1Δ601–13 (recombinant); test: SEC; 2 uM biotinylated peptide incubated 30 min at RT with 4 uM purified Ssb1 in Ssb buffer (30 mM HEPES KOH pH 7.4, 50 mM KAc, 5 mM MgCl2, 1 mM beta-mercaptoethanol), then apyrase for 1 h; Superose 12; fractions dot-blotted, peptide detected with StrepTactin-HRP and Ssb with antibody
# [4] = molecular target: B2; test: as above
# [5] = molecular target: B1; test: SEC; as a1, but Ssb pre-incubated with apyrase (SsbADP) before the peptide was added, compared with Ssb pre-incubated with ATP (SsbATP) and treated with apyrase after the peptide; shifted APPY signals quantified
binder,measurement,setting,value
"QRKLFFNLRKTKQC (also: IAANS label, position not given here, sigma-32 (heat shock sigma factor RpoH), residues Q132-Q144; The unlabelled peptide was used in 100-fold excess as the chase in the release assay; also called model peptide) [IAANS-labelled peptide σ32-Q132-Q144-C]",binding result,[1],binds
same,binding result,[2],binds
B1,binding result,[3],binds
same,binding result,[4],binds
B2,shifted APPY signal of SsbADP relative to SsbATP,[5],71%
